Target: C. elegans cofactor-independent phosphoglycerate mutase (iPGM) (C. elegans) (UniProt G5EFZ1)

Ce-2S (Ce-2 with Cys14Ser) (peptide)
IC50 of inhibition of PGM activity, enzyme-coupled bioluminescent assay: 10 nM

From article PMC5382265, “Macrocycle peptides delineate locked-open inhibition mechanism for microorganism phosphoglycerate mutases” (Nature Communications, 2017)
